Test results: patent US7285618 (JAPAN TOBACCO, dated 2007)

Biological target: G protein (Gi) purified from rabbit liver (rabbit)
Test: cell-based or functional assay

B1: cytochrome C oxidase subunit peptide-1 (COSP-1) (peptide)
peptide: LSFLIPAGWVLSHLDHYKRSSAA
GTPase activity of Gi: ~6 fold
